Measurements from US20130005646A1 (Novo Nordisk, published 2013).
Starred links: 1 amine or outer side, 2 acyl side, 3 side chain; linkers in the order of their positions; H or OH if unused. Positions of bridges follow the written chain, without caps; N, C: chain ends. *: point of attachment. C20 diacid = O=C(O)CCCCCCCCCCCCCCCCCCC(=O)*; 19‑carboxyheptadecanoyl = not defined here; C18 diacid = O=C(O)CCCCCCCCCCCCCCCCC(=O)*; γGlu = O=C(O)[C@H](CCC(=O)[*:2])N[*:1]; AEEA = NCCOCCOCC(=O)O

T1: human calcitonin (a) receptor (human, UniProt P30988 25-474)
T1 sequence (looked up): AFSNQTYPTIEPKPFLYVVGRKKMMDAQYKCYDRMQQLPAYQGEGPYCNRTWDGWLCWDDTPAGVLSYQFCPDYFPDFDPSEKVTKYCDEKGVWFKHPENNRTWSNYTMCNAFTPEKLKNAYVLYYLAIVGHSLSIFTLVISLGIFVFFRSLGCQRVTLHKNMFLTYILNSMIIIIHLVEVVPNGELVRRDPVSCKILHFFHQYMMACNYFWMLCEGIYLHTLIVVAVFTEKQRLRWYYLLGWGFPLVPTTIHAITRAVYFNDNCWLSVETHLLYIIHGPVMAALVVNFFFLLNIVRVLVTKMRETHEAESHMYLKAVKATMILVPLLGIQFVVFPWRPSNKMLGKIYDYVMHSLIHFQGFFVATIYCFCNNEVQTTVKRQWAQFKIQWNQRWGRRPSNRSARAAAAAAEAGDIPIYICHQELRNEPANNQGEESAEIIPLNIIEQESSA

T2: human amylin 3(a) receptor (human calcitonin receptor + RAMP-3) (human, UniProt P30988 25-474; O60896 24-148)
T2 sequence (looked up) 1: T1 sequence (looked up)
T2 sequence (looked up) 2: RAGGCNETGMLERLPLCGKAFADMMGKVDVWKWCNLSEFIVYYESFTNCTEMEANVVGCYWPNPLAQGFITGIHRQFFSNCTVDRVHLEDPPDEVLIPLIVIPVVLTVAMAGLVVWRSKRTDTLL

B1: N-alpha-[(S)-4-Carboxy-4-(19-carboxynonadecanoylamino)butyryl]-His-His-[His1,Glu14,His17,His29]-pramlintide (peptide)
peptide: {C20 diacid-γGlu}-HHHCNTATCATQRLAEFLHHSSNNFGPILPHTNVGSNTY-NH2
modifications: disulfide 4-9
SMILES: CC[C@H](C)[C@H](NC(=O)[C@@H]1CCCN1C(=O)CNC(=O)[C@H](Cc1ccccc1)NC(=O)[C@H](CC(N)=O)NC(=O)[C@H](CC(N)=O)NC(=O)[C@H](CO)NC(=O)[C@H](CO)NC(=O)[C@H](Cc1c[nH]cn1)NC(=O)[C@H](Cc1c[nH]cn1)NC(=O)[C@H](CC(C)C)NC(=O)[C@H](Cc1ccccc1)NC(=O)[C@H](CCC(=O)O)NC(=O)[C@H](C)NC(=O)[C@H](CC(C)C)NC(=O)[C@H](CCCNC(=N)N)NC(=O)[C@H](CCC(N)=O)NC(=O)[C@@H](NC(=O)[C@H](C)NC(=O)[C@@H]1CSSC[C@H](NC(=O)[C@H](Cc2c[nH]cn2)NC(=O)[C@H](Cc2c[nH]cn2)NC(=O)[C@H](Cc2c[nH]cn2)NC(=O)CC[C@H](NC(=O)CCCCCCCCCCCCCCCCCCC(=O)O)C(=O)O)C(=O)N[C@@H](CC(N)=O)C(=O)N[C@@H]([C@@H](C)O)C(=O)N[C@@H](C)C(=O)N[C@@H]([C@@H](C)O)C(=O)N1)[C@@H](C)O)C(=O)N[C@@H](CC(C)C)C(=O)N1CCC[C@H]1C(=O)N[C@@H](Cc1c[nH]cn1)C(=O)N[C@H](C(=O)N[C@@H](CC(N)=O)C(=O)N[C@H](C(=O)NCC(=O)N[C@@H](CO)C(=O)N[C@@H](CC(N)=O)C(=O)N[C@H](C(=O)N[C@@H](Cc1ccc(O)cc1)C(N)=O)[C@@H](C)O)C(C)C)[C@@H](C)O
B2: N-alpha-[2-(2-{2-[2-(2-{2-[(S)-4-Carboxy-4-(19-carboxyheptadecanoylamino)butyrylamino]ethoxy}ethoxy)acetylamino]ethoxy}ethoxy)acetyl]-[des1,Glu14,His17]-pramlin … (peptide)
peptide: {19‑carboxyheptadecanoyl-γGlu-AEEA-AEEA}-CNTATCATQRLAEFLHHSSNNFGPILPPTNVGSNTY-NH2
modifications: disulfide 1-6; reading uncertain; also: printed as N-alpha-[2-(2-{2-[2-(2-{2-[(S)-4-Carboxy-4-(19-carboxyheptadecanoylamino)butyrylamino]ethoxy}ethoxy)acetylamino]ethoxy}ethoxy)acetyl]-[des1,Glu14,His17]-pramlintide
B3: N-alpha-[(S)-4-Carboxy-4-(17-carboxyheptadecanoylamino)butyryl]-His-His-[His1,Glu14,His17]-pramlintide (peptide)
peptide: {C18 diacid-γGlu}-HHHCNTATCATQRLAEFLHHSSNNFGPILPPTNVGSNTY-NH2
modifications: disulfide 4-9
SMILES: CC[C@H](C)[C@H](NC(=O)[C@@H]1CCCN1C(=O)CNC(=O)[C@H](Cc1ccccc1)NC(=O)[C@H](CC(N)=O)NC(=O)[C@H](CC(N)=O)NC(=O)[C@H](CO)NC(=O)[C@H](CO)NC(=O)[C@H](Cc1c[nH]cn1)NC(=O)[C@H](Cc1c[nH]cn1)NC(=O)[C@H](CC(C)C)NC(=O)[C@H](Cc1ccccc1)NC(=O)[C@H](CCC(=O)O)NC(=O)[C@H](C)NC(=O)[C@H](CC(C)C)NC(=O)[C@H](CCCNC(=N)N)NC(=O)[C@H](CCC(N)=O)NC(=O)[C@@H](NC(=O)[C@H](C)NC(=O)[C@@H]1CSSC[C@H](NC(=O)[C@H](Cc2c[nH]cn2)NC(=O)[C@H](Cc2c[nH]cn2)NC(=O)[C@H](Cc2c[nH]cn2)NC(=O)CC[C@H](NC(=O)CCCCCCCCCCCCCCCCC(=O)O)C(=O)O)C(=O)N[C@@H](CC(N)=O)C(=O)N[C@@H]([C@@H](C)O)C(=O)N[C@@H](C)C(=O)N[C@@H]([C@@H](C)O)C(=O)N1)[C@@H](C)O)C(=O)N[C@@H](CC(C)C)C(=O)N1CCC[C@H]1C(=O)N1CCC[C@H]1C(=O)N[C@H](C(=O)N[C@@H](CC(N)=O)C(=O)N[C@H](C(=O)NCC(=O)N[C@@H](CO)C(=O)N[C@@H](CC(N)=O)C(=O)N[C@H](C(=O)N[C@@H](Cc1ccc(O)cc1)C(N)=O)[C@@H](C)O)C(C)C)[C@@H](C)O
B4: N-alpha-[(S)-4-Carboxy-4-(17-carboxyheptadecanoylamino)butyryl]-His-[His1,Glu14,His17]-pramlintide (peptide)
peptide: {C18 diacid-γGlu}-HHCNTATCATQRLAEFLHHSSNNFGPILPPTNVGSNTY-NH2
modifications: disulfide 3-8
SMILES: CC[C@H](C)[C@H](NC(=O)[C@@H]1CCCN1C(=O)CNC(=O)[C@H](Cc1ccccc1)NC(=O)[C@H](CC(N)=O)NC(=O)[C@H](CC(N)=O)NC(=O)[C@H](CO)NC(=O)[C@H](CO)NC(=O)[C@H](Cc1c[nH]cn1)NC(=O)[C@H](Cc1c[nH]cn1)NC(=O)[C@H](CC(C)C)NC(=O)[C@H](Cc1ccccc1)NC(=O)[C@H](CCC(=O)O)NC(=O)[C@H](C)NC(=O)[C@H](CC(C)C)NC(=O)[C@H](CCCNC(=N)N)NC(=O)[C@H](CCC(N)=O)NC(=O)[C@@H](NC(=O)[C@H](C)NC(=O)[C@@H]1CSSC[C@H](NC(=O)[C@H](Cc2c[nH]cn2)NC(=O)[C@H](Cc2c[nH]cn2)NC(=O)CC[C@H](NC(=O)CCCCCCCCCCCCCCCCC(=O)O)C(=O)O)C(=O)N[C@@H](CC(N)=O)C(=O)N[C@@H]([C@@H](C)O)C(=O)N[C@@H](C)C(=O)N[C@@H]([C@@H](C)O)C(=O)N1)[C@@H](C)O)C(=O)N[C@@H](CC(C)C)C(=O)N1CCC[C@H]1C(=O)N1CCC[C@H]1C(=O)N[C@H](C(=O)N[C@@H](CC(N)=O)C(=O)N[C@H](C(=O)NCC(=O)N[C@@H](CO)C(=O)N[C@@H](CC(N)=O)C(=O)N[C@H](C(=O)N[C@@H](Cc1ccc(O)cc1)C(N)=O)[C@@H](C)O)C(C)C)[C@@H](C)O
B5: N-alpha-[(S)-4-Carboxy-4-(19-carboxynonadecanoylamino)butyryl]-Glu-Glu-[Glu14,His17]-pramlintide (peptide)
peptide: {C20 diacid-γGlu}-EEKCNTATCATQRLAEFLHHSSNNFGPILPPTNVGSNTY-NH2
modifications: disulfide 4-9
SMILES: CC[C@H](C)[C@H](NC(=O)[C@@H]1CCCN1C(=O)CNC(=O)[C@H](Cc1ccccc1)NC(=O)[C@H](CC(N)=O)NC(=O)[C@H](CC(N)=O)NC(=O)[C@H](CO)NC(=O)[C@H](CO)NC(=O)[C@H](Cc1c[nH]cn1)NC(=O)[C@H](Cc1c[nH]cn1)NC(=O)[C@H](CC(C)C)NC(=O)[C@H](Cc1ccccc1)NC(=O)[C@H](CCC(=O)O)NC(=O)[C@H](C)NC(=O)[C@H](CC(C)C)NC(=O)[C@H](CCCNC(=N)N)NC(=O)[C@H](CCC(N)=O)NC(=O)[C@@H](NC(=O)[C@H](C)NC(=O)[C@@H]1CSSC[C@H](NC(=O)[C@H](CCCCN)NC(=O)[C@H](CCC(=O)O)NC(=O)[C@H](CCC(=O)O)NC(=O)CC[C@H](NC(=O)CCCCCCCCCCCCCCCCCCC(=O)O)C(=O)O)C(=O)N[C@@H](CC(N)=O)C(=O)N[C@@H]([C@@H](C)O)C(=O)N[C@@H](C)C(=O)N[C@@H]([C@@H](C)O)C(=O)N1)[C@@H](C)O)C(=O)N[C@@H](CC(C)C)C(=O)N1CCC[C@H]1C(=O)N1CCC[C@H]1C(=O)N[C@H](C(=O)N[C@@H](CC(N)=O)C(=O)N[C@H](C(=O)NCC(=O)N[C@@H](CO)C(=O)N[C@@H](CC(N)=O)C(=O)N[C@H](C(=O)N[C@@H](Cc1ccc(O)cc1)C(N)=O)[C@@H](C)O)C(C)C)[C@@H](C)O
B6: N-alpha-[(S)-4-Carboxy-4-(19-carboxynonadecanoylamino)butyryl]-Glu-[His1,Glu14,His17]-pramlintide (peptide)
peptide: {C20 diacid-γGlu}-EHCNTATCATQRLAEFLHHSSNNFGPILPPTNVGSNTY-NH2
modifications: disulfide 3-8
SMILES: CC[C@H](C)[C@H](NC(=O)[C@@H]1CCCN1C(=O)CNC(=O)[C@H](Cc1ccccc1)NC(=O)[C@H](CC(N)=O)NC(=O)[C@H](CC(N)=O)NC(=O)[C@H](CO)NC(=O)[C@H](CO)NC(=O)[C@H](Cc1c[nH]cn1)NC(=O)[C@H](Cc1c[nH]cn1)NC(=O)[C@H](CC(C)C)NC(=O)[C@H](Cc1ccccc1)NC(=O)[C@H](CCC(=O)O)NC(=O)[C@H](C)NC(=O)[C@H](CC(C)C)NC(=O)[C@H](CCCNC(=N)N)NC(=O)[C@H](CCC(N)=O)NC(=O)[C@@H](NC(=O)[C@H](C)NC(=O)[C@@H]1CSSC[C@H](NC(=O)[C@H](Cc2c[nH]cn2)NC(=O)[C@H](CCC(=O)O)NC(=O)CC[C@H](NC(=O)CCCCCCCCCCCCCCCCCCC(=O)O)C(=O)O)C(=O)N[C@@H](CC(N)=O)C(=O)N[C@@H]([C@@H](C)O)C(=O)N[C@@H](C)C(=O)N[C@@H]([C@@H](C)O)C(=O)N1)[C@@H](C)O)C(=O)N[C@@H](CC(C)C)C(=O)N1CCC[C@H]1C(=O)N1CCC[C@H]1C(=O)N[C@H](C(=O)N[C@@H](CC(N)=O)C(=O)N[C@H](C(=O)NCC(=O)N[C@@H](CO)C(=O)N[C@@H](CC(N)=O)C(=O)N[C@H](C(=O)N[C@@H](Cc1ccc(O)cc1)C(N)=O)[C@@H](C)O)C(C)C)[C@@H](C)O

Each binder was assayed against T1, human calcitonin (a) receptor (assay: cell-based or functional assay).

| CTa receptor human EC50 [nM] | Binder |
| --- | --- |
| 0.191 | B1 |
| 0.672 | B2 |
| 0.265 | B3 |
| 0.258 | B4 |
| 0.798 | B5 |
| 0.439 | B6 |

The binders below were run against T2, human amylin 3(a) receptor (human …) (assay: cell-based or functional assay).

| Amylin receptor human EC50 [nM] | Binder |
| --- | --- |
| 0.167 | B1 |
| 0.334 | B2 |
| 0.0624 | B3 |
| 0.059 | B4 |
| 0.402 | B5 |
| 0.248 | B6 |
